Experimental data from patent publication US20150368309A1 (SHIRE HUMAN GENETIC THERAPIES, published 2015).

Target: the molecule itself
Test: DSS crosslinking, anti-Flt-1 Western blot
Description: PLGF and sFlt-1 (Human sFlt-1:Abcam, Cat#54346) were incubated on ice for 2 hrs in 100 μL crosslinking buffer. After the incubation, the crosslinking reagent, Disuccinimidyl suberate (DSS), was added, 1 μL of 25 mM stock DSS (in DMSO) to a final concentration of 250 μM. After brief vortexing, the mixture was incubated on ice for additional 15 min.
To analyze the crosslinked complexes using Western blot, the pellets were solubilized with 30 μL of 1×LDS buffer containing 10 mM DTT. After heating the dissolved pellets to 37° C. for 15 min, 10 μL of the sample was loaded onto 8 to 16% Tris-glycince SDS-PAGE gel. The gels were transferred to PVDF membranes by standard method for anti-PLGF or anti-Flt-1 Western blot analysis.
WT PLGF forms dimers in its native state, and the binding models of WT PLGF with hsFlt-1 were established. A PLGF C59A monomer binding with Flt-1 receptor monomer is also found. The binding complexes, WT PLGF-hsFlt-1 and PLGF C59A-hsFlt-1, were crosslinked by DSS through amine groups on the surface of PLGF or hsFlt-1 molecules. After separating on SDS-PAGE, PLGF-containing or Flt-1 containing binding complexes were detected on Western blot by anti-PLGF or anti-Flt-1 antibodies.

B1: Human sFlt-1 (Abcam, Cat#54346), without Fc fusion (receptor, UniProt P17948-2 27-687, looked up)
chain: SKLKDPELSLKGTQHIMQAGQTLHLQCRGEAAHKWSLPEMVSKESERLSITKSACGRNGKQFCSTLTLNTAQANHTGFYSCKYLAVPTSKKKETESAIYIFISDTGRPFVEMYSEIPEIIHMTEGRELVIPCRVTSPNITVTLKKFPLDTLIPDGKRIIWDSRKGFIISNATYKEIGLLTCEATVNGHLYKTNYLTHRQTNTIIDVQISTPRPVKLLRGHTLVLNCTATTPLNTRVQMTWSYPDEKNKRASVRRRIDQSNSHANIFYSVLTIDKMQNKDKGLYTCRVRSGPSFKSVNTSVHIYDKAFITVKHRKQQVLETVAGKRSYRLSMKVKAFPSPEVVWLKDGLPATEKSARYLTRGYSLIIKDVTEEDAGNYTILLSIKQSNVFKNLTATLIVNVKPQIYEKAVSSFPDPALYPLGSRQILTCTAYGIPQPTIKWFWHPCNHNHSEARCDFCSNNEESFILDADSNMGNRIESITQRMAIIEGKNKMASTLVVADSRISGIYICIASNKVGTVGRNISFYITDVPNGFHVNLEKMPTEGEDLKLSCTVNKFLYRDVTWILLRTVNNRTMHYSISKQKMAITKEHSITLNLTIMNVSLQDSGTYACRARNVYTGEEILQKKEITIRGEHCNKKAVFSRISKFKSTRNDCTTQSNVKH
notes: also called hsFlt-1; commercial sFlt-1 that doesn't contain Fc fusion
binding result: no binding
